Results from article PMC3086013 (Biochemistry, 2010).

Target: the molecule itself
Experiment: velocity sedimentation on H2O- and D2O-sucrose gradients + SEC

| Protein | stoichiometry N [subunits/complex] |
| --- | --- |
| seipin-myc13 (yeast seipin fused to 13 tandem copies of the myc epitope) (natural protein, S. cerevisiae, UniProt Q06058 1-285, looked up) MKINVSRPLQFLQWSSYIVVAFLIQLLIILPLSILIYHDFYLRLLPADSSNVVPLNTFNILNGVQFGTKFFQSIKSIPVGTDLPQTIDNGLSQLIPMRDNMEYKLDLNLQLYCQSKTDHLNLDNLLIDVYRGPGPLLGAPGGSNSKDEKIFHTSRPIVCLALTDSMSPQEIEQLGPSRLDVYDEEWLNTIRIEDKISLESSYETISVFLKTEIAQRNLIIHPESGIKFRMNFEQGLRNLMLRKRFLSYIIGISIFHCIICVLFFITGCTAFIFVRKGQEKSKKHS | 9.4 |
| seipin-mCherry (yeast seipin tagged at its carboxy terminus with mCherry) (natural protein, S. cerevisiae, UniProt Q06058 1-285, looked up) MKINVSRPLQFLQWSSYIVVAFLIQLLIILPLSILIYHDFYLRLLPADSSNVVPLNTFNILNGVQFGTKFFQSIKSIPVGTDLPQTIDNGLSQLIPMRDNMEYKLDLNLQLYCQSKTDHLNLDNLLIDVYRGPGPLLGAPGGSNSKDEKIFHTSRPIVCLALTDSMSPQEIEQLGPSRLDVYDEEWLNTIRIEDKISLESSYETISVFLKTEIAQRNLIIHPESGIKFRMNFEQGLRNLMLRKRFLSYIIGISIFHCIICVLFFITGCTAFIFVRKGQEKSKKHS | 8.7 |
